Data taken from the supplement of paper PMC10567573.

B1: SFRS1 (parent)
chain: RDIDLKNRRGGPPFAFVEFEDPRD
B2: ALKBH7 (parent)
chain: SVICRSLPEGMGPGESGQPPPAC

Variants of: B1
Test: protein stability index of a GFP-peptide fusion (GPS, HEK-293T) (PSI 1-6); higher = more stable
Conditions: c terminus: a fixed tail appended
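Note: lentivirally expressed fusions sorted by FACS into six bins by GFP to DsRed ratio, PSI derived from sequencing read proportions per bin multiplied by bin number.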

Protein stability index, by site and new letter:
L5: H 3.59; I 3.67; P 3.68; M 3.93; S 4.06; N 3.89; E 4.49; Y 3.3; F 3.35; V 3.94; C 3.11; T 3.72; W 3.41; D 4.49; K 3.81; G 3.74; Q 4.13; A 4.09; R 3.35
K6: E 4.28; G 3.98; S 4.35; H 4.71; V 4.09; P 3.63; T 4.02; W 3.79; N 4.04; F 3.61; L 3.95; M 4.07; I 3.69; Q 4.22; A 4.18; C 3.91; D 3.84; Y 3.78; R 3.47
N7: K 3.41; F 2.76; S 3.5; M 3.26; I 3.63; Q 3.56; C 3.56; E 4.26; G 4.16; V 3.39; R 3.1; D 4.54; W 3.28; A 3.61; Y 3.02; P 3.78; H 3.61; L 3.39; T 3.73
I3: S 3.45; F 3.64; E 4.71; W 3.95; T 3.73; N 3.81; P 3.98; K 3.77; C 3.75; M 3.57; H 3.92; V 3.79; Q 4.1; R 3.6; A 4.29; Y 3.56; G 4.15; D 4.57; L 3.81
D2: P 3.51; H 3.19; G 3.06; I 2.68; T 3.19; K 3.12; N 3.41; A 2.59; L 2.62; Q 3.25; E 4.06; V 3.28; S 3.6; R 3.34; F 2.91; Y 2.76; M 3.29; C 3.1; W 2.1
R8: H 3.71; Y 3.96; T 4.33; G 4.46; C 4.23; A 4.06; V 4.17; L 3.77; S 4.32; W 3.71; I 4.08; P 4.19; D 4.42; F 3.75; M 4.12; N 4.27; Q 4.18; K 4.13; E 4.73
D4: F 2.81; N 3.61; E 3.61; K 3.47; T 3.28; C 3.33; P 3.08; W 2.35; L 3.42; V 2.85; S 3.83; H 3.25; Y 2.92; Q 3.57; I 3.17; A 3.11; R 3.45; M 3.4; G 3.34
R9: L 4.27; C 3.92; K 3.69; D 4.43; W 4.23; V 4.21; A 4.57; F 3.94; G 4.11; T 4.03; M 4.04; H 4.21; Y 3.91; S 4.12; N 4.5; Q 4.11; I 4.24; P 4.16; E 4.18
R1: L 4.21; Q 3.96; K 3.57; N 4.2; A 4.38; I 3.1; V 3.97; S 3.84; C 4.2; G 4.01; Y 3.65; M 4.04; T 3.94; D 4.74; H 3.89; P 3.81; E 4.36; F 3.19; W 2.69
G11: P 3.36; Q 3.47; M 2.61; E 4.47; H 3.52; L 2.21; W 3.1; T 3.87; D 4.23; V 3.89; F 3; I 3; N 3.83; R 3.25; S 4.17; C 3.77; K 3.78; A 4.11
G10: C 3.22; H 3.85; A 3.76; F 3.9; R 2.96; S 4.21; E 4.2; D 4.15; W 2.77; V 3.71; K 3.42; L 3.51; P 3.73; I 3.41; Q 4.18; T 4.3; M 3.51; N 3.63; Y 3.19

Variants of: B2
Test: as above
Conditions: c terminus: native

Protein stability index, by site and new letter:
Q18: C 1.66; S 2.36; F 3.03; L 2.07; E 2.15; I 2.56; Y 3.38; M 1.85; A 2.15; N 2.05; K 2.16; D 2.05; H 2.38; R 2
C23: R 4.76; K 4.35; H 5.02; L 4.69; T 4.52; N 5.35; S 2.99; F 4.57; D 4.63; V 4.54; Y 4.45; Q 3.8; M 5.48; I 5.17; E 4.31; W 4.15
S16: M 2.59; T 1.92; K 2.28; F 2.37; R 2.12; Y 1.95; Q 1.8; H 2.07; N 2.06; P 2.07; G 2.29; V 3.02; E 1.81; I 1.59
P21: L 1.28; I 2.5; M 1.18; G 4.95; C 2.17; E 2.47; Q 3.36; S 4.08; A 1.68; D 2.63; F 2.69; Y 2.59; N 4.05; K 3.92; H 3.44; V 3.21; T 2.51
A22: Q 4.92; F 5.01; L 4.3; R 5; H 4.75; Y 4.68; C 4.31; W 4.77; S 3.69; M 4.74; D 5.53; E 4.63; G 5.1; N 5.43; I 3.19; K 5.64; T 4.77; V 3.77
G17: R 1.38; Y 1.09; K 2.94; S 1.71; N 1.95; E 2.45; D 2.36; C 1.73; I 2.46; Q 2.11; L 2.14; A 2.39; T 1.61; H 1.4
P20: Q 1.64; D 4.12; T 2.08; H 3.78; F 2.45; K 4.38; M 1.79; R 4.09; N 4.14; I 3.72; E 3.55; C 2.42; G 4.91; Y 3.31; S 3.75
P19: W 2.26; F 1.99; S 4.04; H 3.66; E 5.1; A 1.71; M 1.64; Y 2.33; V 4.2; K 3.18; D 4.84; Q 4.22; L 2.19; R 2.69; N 4.27; C 3.13; I 3.09; T 1.95
